The target of data set [1] is TRF2 (Telomeric Repeat-binding Factor 2), full length (human). Description: SAXS.
The target is the same in data set [2]. Description: SEC-MALS + ITC.
Data set [3] concerns the target TRFH domain of TRF2 (TRF2 dimerization domain) (human). Description: ITC. For orientation: Isothermal titration calorimetry measures the heat released or taken up as one component is titrated into another.
In data set [4] the target is TRF2 (Telomeric Repeat-binding Factor 2), full length (human). Description: ITC.
The target of another data set is T1, RAP1 (human, UniProt Q9NYB0 1-399).
T1 sequence: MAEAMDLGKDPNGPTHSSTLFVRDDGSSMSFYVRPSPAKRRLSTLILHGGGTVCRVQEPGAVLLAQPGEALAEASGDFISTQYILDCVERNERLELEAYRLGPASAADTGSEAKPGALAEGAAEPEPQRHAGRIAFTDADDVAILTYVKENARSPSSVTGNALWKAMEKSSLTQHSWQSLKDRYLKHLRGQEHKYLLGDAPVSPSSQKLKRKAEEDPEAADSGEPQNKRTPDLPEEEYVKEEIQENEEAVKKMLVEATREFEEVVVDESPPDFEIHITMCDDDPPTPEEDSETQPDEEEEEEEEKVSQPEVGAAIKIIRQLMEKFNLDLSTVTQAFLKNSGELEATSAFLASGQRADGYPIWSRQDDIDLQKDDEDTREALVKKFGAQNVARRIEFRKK
The data set can be described thus: ITC.

Data set [5] deals with TRF2 (Telomeric Repeat-binding Factor 2), full length (human). The data set can be described thus: ITC. The source holds these as a separate data set.

Bounds are passed on as bounds.

Usually stoichiometry N stands for a count of units in the complex or per binding partner. One may read the Kd as the equilibrium constant for the complex coming apart.

As to “TRF2 (Telomeric Repeat-binding Factor 2), full length (natural protein)”, the stoichiometry N in data set [1] and in data set [2] was 2 throughout. “Apollo-YLP peptide (Apollo residues 494-511)”: the values for the Kd in data set [3] and in data set [4] were 59 nM and 46 nM, respectively.

B1: T2-S1-S2 (T2AG3 duplex) (dsDNA)
DNA 1: CTAGGGTTAGGGTTAG
DNA 2: CTAACCCTAACCCTAG
In the case of B1, the binding result with RAP1 was “no binding”.

B2: RAP1 (Repressor Activator Protein 1), full length (natural protein)
chain: MAEAMDLGKDPNGPTHSSTLFVRDDGSSMSFYVRPSPAKRRLSTLILHGGGTVCRVQEPGAVLLAQPGEALAEASGDFISTQYILDCVERNERLELEAYRLGPASAADTGSEAKPGALAEGAAEPEPQRHAGRIAFTDADDVAILTYVKENARSPSSVTGNALWKAMEKSSLTQHSWQSLKDRYLKHLRGQEHKYLLGDAPVSPSSQKLKRKAEEDPEAADSGEPQNKRTPDLPEEEYVKEEIQENEEAVKKMLVEATREFEEVVVDESPPDFEIHITMCDDDPPTPEEDSETQPDEEEEEEEEKVSQPEVGAAIKIIRQLMEKFNLDLSTVTQAFLKNSGELEATSAFLASGQRADGYPIWSRQDDIDLQKDDEDTREALVKKFGAQNVARRIEFRKK
In data set [5], B2 came in with a KD of the high affinity site (two-independent sites model) of less than 1 nM and a KD of the lower affinity site (two-independent sites model) of 0.5 µM.
